Test results taken from the supplement of paper PMC10598134.
± gives the standard deviation.

Assay: collision cross section of modified peptide (TIMS, N2, iRT-aligned); higher = larger / more extended gas-phase ion
How it was run: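 Collision cross section values rest on the Mason-Schamp equation applied to calibrated, run-aligned mobility data from synthetic peptides. Mobility (1/K0) was calibrated with three reference ions and aligned per run to the median iRT peptide deviation, and 1–3 technical replicates of the most abundant feature per charge state were averaged. Data came from a timsTOF Pro/HT in dda-PASEF mode (nitrogen, ~2.4 mbar) after a 120-min nanoflow C18 gradient at 60 °C.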

[1] = charge state: 2, modification: Crotonyl
[2] = charge state: 3, modification: Dimethyl (K)
[3] = charge state: 2, modification: Nitro (Y)
[4] = charge state: 3, modification: Crotonyl
[5] = charge state: 2, modification: Citrullination (R)
[6] = charge state: 2, modification: Phospho (Y)
[7] = charge state: 2, modification: Butyryl
[8] = charge state: 2, modification: HexNAc (ST)
[9] = charge state: 2, modification: Acetyl (K)
[10] = charge state: 3, modification: Acetyl (K)
[11] = charge state: 2, modification: Methyl (R)
[12] = charge state: 3, modification: Methyl (R)
[13] = charge state: 2, modification: Glutarylation
[14] = charge state: 2, modification: Succinyl
[15] = charge state: 3, modification: Succinyl
[16] = charge state: 2, modification: Trimethyl (K)
[17] = charge state: 3, modification: Trimethyl (K)
[18] = charge state: 2, modification: Biotin
[19] = charge state: 2, modification: hydroxyisobutyryl
[20] = charge state: 2, modification: Formyl
[21] = charge state: 2, modification: Dimethyl (K)
[22] = charge state: 2, modification: GlyGly (K)
[23] = charge state: 3, modification: GlyGly (K)
[24] = charge state: 2, modification: Hydroxyproline

With LLEEEDSKLK [_LLEEEDSK(Crotonyl)LK_] the collision cross section [1] was 386.83 ± 0.27 Å².

With “AAQASDLEKIHLDEK [_AAQASDLEK(Dimethyl (K))IHLDEK_]” the collision cross section [2] was 503.12 ± 0.75 Å².

“VDIDVPDVNIEGPDAKLK [_VDIDVPDVNIEGPDAK(Dimethyl (K))LK_]” showed a collision cross section [2] of 550.04 ± 1.1 Å².

In the case of YILIPASQQPK [_Y(Nitro (Y))ILIPASQQPK_], the collision cross section [3] is reported as 382.12 ± 0.17 Å².

Sequence “TQAYQDQKPGTSGLR [_TQAYQDQK(Crotonyl)PGTSGLR_]” has a collision cross section [1] of 430.35 ± 3.2 Å² and a collision cross section [4] of 480.34 ± 2.8 Å².

Work on “LRQQLQAK [_LR(Citrullination (R))QQLQAK_]” yielded a collision cross section [5] of 337.45 ± 0.28 Å².

Sequence VIVGGSSEYK [_VIVGGSSEY(Phospho (Y))K_] has a collision cross section [6] of 358.71 ± 0.065 Å².

With “LEENHYNTYISK [_LEENHYNTY(Nitro (Y))ISK_]” the collision cross section [3] was 425.11 ± 1.1 Å² and the collision cross section (charge state: 3, modification: Nitro (Y)) was 478.71 ± 0.24 Å².

With “GTVPDDAVEALADSLGKK [_GTVPDDAVEALADSLGK(Butyryl)K_]” the collision cross section [7] was 458.53 ± 0.36 Å² and the collision cross section (charge state: 3, modification: Butyryl) was 534.24 ± 1.4 Å².

Work on “GQDSTIAASEQQVAAR [_GQDS(HexNAc (ST))TIAASEQQVAAR_]” yielded a collision cross section [8] of 438.46 ± 0.56 Å² and a collision cross section (charge state: 3, modification: HexNAc (ST)) of 532.78 ± 0.19 Å².

Work on “STGLELETPSLVPVKK [_STGLELETPSLVPVK(Acetyl (K))K_]” yielded a collision cross section [9] of 431.84 ± 2.2 Å² and a collision cross section [10] of 518.73 ± 1.1 Å².

“GARLPGPVSSAR [_GAR(Methyl (R))LPGPVSSAR_]” showed a collision cross section [11] of 360.12 ± 1.2 Å² and a collision cross section [12] of 474.74 ± 8.7 Å².

Sequence “AQPSASLGVGYR [_AQPSAS(HexNAc (ST))LGVGYR_]” has a collision cross section [8] of 394.91 ± 0.63 Å².

In the case of GSLEKGSPEDK [_GSLEK(Propionyl)GSPEDK_], the collision cross section (charge state: 2, modification: Propionyl) is reported as 368.76 ± 0.94 Å².

Work on “FVDSKVGEFSGANK [_FVDSK(Gluratylation)VGEFSGANK_]” yielded a collision cross section [13] of 419.09 Å².

With “DAEAAEATAEGALKAEK [_DAEAAEATAEGALK(Succinyl)AEK_]” the collision cross section [14] was 437.62 ± 0.51 Å² and the collision cross section [15] was 541.32 ± 2 Å².

Work on “DTGEKLTVAENEAETK [_DTGEK(Trimethyl (K))LTVAENEAETK_]” yielded a collision cross section [16] of 443.08 Å² and a collision cross section [17] of 490.09 ± 1.8 Å².

“DLSTVEALQNLKNLK [_DLSTVEALQNLK(Acetyl (K))NLK_]” gave a collision cross section [9] of 475.96 ± 3.5 Å² and a collision cross section [10] of 544.02 Å².

In the case of GGPGSTLSFVGKR [_GGPGSTLSFVGK(Biotin)R_], the collision cross section [18] is reported as 397.77 Å².

With “GETASKLQSEISR [_GETASK(hydroxyisobutyryl)LQSEISR_]” the collision cross section [19] was 394.7 ± 0.81 Å².

Work on “LQEKVESAQSEQK [_LQEK(Crotonyl)VESAQSEQK_]” yielded a collision cross section [1] of 419.55 ± 0.85 Å² and a collision cross section [4] of 502.91 ± 1.6 Å².

For “PANEKATDDYHYEK [_PANEK(hydroxyisobutyryl)ATDDYHYEK_]”, the collision cross section [19] was 446.18 ± 0.51 Å² and the collision cross section (charge state: 3, modification: hydroxyisobutyryl) was 509.04 ± 1.9 Å².

For “YEEIVKEVSTYIK [_YEEIVK(Dimethyl (K))EVSTYIK_]”, the collision cross section [2] was 492.52 Å².

“YSTSGSSGLTTGK [_Y(Nitro (Y))STSGSSGLTTGK_]” showed a collision cross section [3] of 371.62 ± 0.55 Å².

With “TFGKAAGPSLSHTSGGTQSK [_TFGK(Formyl)AAGPSLSHTSGGTQSK_]” the collision cross section [20] was 488.52 ± 0.72 Å² and the collision cross section (charge state: 3, modification: Formyl) was 508.22 ± 1.5 Å².

Sequence “ASAISIKLGSSK [_ASAISIK(Methyl (K))LGSSK_]” has a collision cross section (charge state: 2, modification: Methyl (K)) of 369.46 ± 0.48 Å² and a collision cross section (charge state: 3, modification: Methyl (K)) of 438.5 ± 5.9 Å².

For “SLKLNTAEDAK [_SLK(Dimethyl (K))LNTAEDAK_]”, the collision cross section [21] was 369.7 ± 0.36 Å² and the collision cross section [2] was 468.91 ± 1.6 Å².

LEEVTGKLQVAR [_LEEVTGK(Biotin)LQVAR_] gave a collision cross section [18] of 414.01 ± 0.23 Å² and a collision cross section (charge state: 3, modification: Biotin) of 494.02 ± 0.34 Å².

For “DESFLGKLGGTLAR [_DESFLGK(Dimethyl (K))LGGTLAR_]”, the collision cross section [21] was 418.8 ± 0.75 Å² and the collision cross section [2] was 466.85 ± 1.2 Å².

“VQGGALEDSQLVAGVAFKK [_VQGGALEDSQLVAGVAFK(GlyGly (K))K_]” showed a collision cross section [22] of 504.45 ± 0.061 Å² and a collision cross section [23] of 565.73 ± 1.7 Å².

“TFGKAAGPSLSHTSGGTQSK [_TFGK(Trimethyl (K))AAGPSLSHTSGGTQSK_]” showed a collision cross section [17] of 559.57 ± 0.94 Å².

IGNSYFKEEK [_IGNSYFK(Butyryl)EEK_] gave a collision cross section [7] of 377.97 ± 0.72 Å².

Work on ASEALLKQLK [_ASEALLK(Crotonyl)QLK_] yielded a collision cross section [1] of 379.57 ± 1.1 Å².

Work on “LGPPGNPGPSGSPGPK [_LGPPGNP(Hydroxyproline)GPSGSPGPK_]” yielded a collision cross section [24] of 386.54 ± 0.27 Å² and a collision cross section (charge state: 3, modification: Hydroxyproline) of 431.89 Å².

With “LLIVSTTPYSEKDTK [_LLIVSTTPYSEK(Dimethyl (K))DTK_]” the collision cross section [21] was 459.41 ± 1.9 Å² and the collision cross section [2] was 505.24 ± 1.6 Å².

For “VDIDAPDVSIEGPDAKLK [_VDIDAPDVSIEGPDAK(Acetyl (K))LK_]”, the collision cross section [9] was 462.55 ± 2.9 Å².

Work on “DFAFYNPRLQGK [_DFAFYNPR(Methyl (R))LQGK_]” yielded a collision cross section [11] of 413.14 ± 0.67 Å² and a collision cross section [12] of 469.16 ± 2.2 Å².

With “TQDQISNIKYHEEFEK [_TQDQISNIK(Dimethyl (K))YHEEFEK_]” the collision cross section [2] was 542.8 ± 0.41 Å².

Work on “YADLTEDQLPSCESLK [_Y(Phospho (Y))ADLTEDQLPSCESLK_]” yielded a collision cross section [6] of 458.87 Å².

For “IVSGKDYNVTANSK [_IVSGK(Formyl)DYNVTANSK_]”, the collision cross section [20] was 405.86 ± 0.56 Å².

“TLTPASSPVSSPSK [_TLTPASSPVSSPS(HexNAc (ST))K_]” showed a collision cross section [8] of 404.79 Å².

“SKHLQEQLNELK [_SK(Trimethyl (K))HLQEQLNELK_]” showed a collision cross section [16] of 417.87 Å² and a collision cross section [17] of 506.13 ± 1.6 Å².

Sequence “AVAITQSPSSVR [_AVAIT(HexNAc (ST))QSPSSVR_]” has a collision cross section [8] of 390.4 ± 0.13 Å².

With “TFGKAAGPSLSHTSGGTQSK [_TFGK(Succinyl)AAGPSLSHTSGGTQSK_]” the collision cross section [14] was 476.24 Å² and the collision cross section [15] was 513.01 ± 0.73 Å².

In the case of LAEEENKAK [_LAEEENK(Trimethyl (K))AK_], the collision cross section [16] is reported as 353.67 ± 0.62 Å² and the collision cross section [17] is reported as 413.12 Å².

In the case of GLPGEPGPR [_GLPGEP(Hydroxyproline)GPR_], the collision cross section [24] is reported as 312.79 ± 1.3 Å².

Sequence “SLKLNTAEDAK [_SLK(Gluratylation)LNTAEDAK_]” has a collision cross section [13] of 381.67 ± 0.53 Å².

“IDLPAENSNSETIIITGKR [_IDLPAENSNSETIIITGK(Trimethyl (K))R_]” gave a collision cross section [17] of 576.62 Å².

SLFFGGKGAPLQR [_SLFFGGK(Formyl)GAPLQR_] gave a collision cross section [20] of 399.67 ± 0.55 Å².

Sequence “GGPGGELPRGPQAGLGPR [_GGPGGELPR(Citrullination (R))GPQAGLGPR_]” has a collision cross section [5] of 413.18 ± 0.98 Å² and a collision cross section (charge state: 3, modification: Citrullination (R)) of 502.3 ± 0.77 Å².

Sequence “ALASIDSKLNQAK [_ALASIDSK(GlyGly (K))LNQAK_]” has a collision cross section [22] of 417.48 ± 0.98 Å² and a collision cross section [23] of 469.2 ± 1.3 Å².

For “ANLEKAQAELVGTADEATR [_ANLEK(Crotonyl)AQAELVGTADEATR_]”, the collision cross section [1] was 478.55 ± 1.5 Å² and the collision cross section [4] was 577.75 ± 0.5 Å².

Work on TTEETSKPK [_TTEETSK(Succinyl)PK_] yielded a collision cross section [14] of 347.17 ± 0.86 Å².

Work on “LQDVSGQLSSSKK [_LQDVSGQLSSSK(Trimethyl (K))K_]” yielded a collision cross section [16] of 417.06 ± 1.1 Å² and a collision cross section [17] of 475.09 ± 1.5 Å².

Sequence “DTPTSAGPNSFNKGK [_DTPTSAGPNSFNK(Formyl)GK_]” has a collision cross section [20] of 404 ± 0.2 Å².
